In patent US8562982B2, “Use of platelet activating factor acetylhydrolase as a biomarker for anaphylaxis” (Allertech Laboratory Inc., priority 2007, dated 2013):

Assay: Stability of PAF-AH in serum (storage temperatures, freeze-thaw cycles)
Assay type: physicochemical, human
Protocol: Sera may have been stored under differing conditions, subjecting PAF-AH to thermal stresses. In order to evaluate the effect of handling and storage conditions on PAF-AH activity, serum samples were subjected to a range of temperatures and freeze-thaw cycles and assayed for residual PAF-AH activity as detailed below.
The final concentration of the substrate was 160 μM. […] The reaction was stopped in an ice bath.
Serum samples from individuals with fatal peanut anaphylaxis and from various control groups may have been stored under differing conditions, subjecting PAF-AH to thermal stresses. In order to evaluate the effect of handling and storage conditions on PAF-AH activity, sera were stored at different temperatures. The stability of PAF-AH stored at 4° C. and 23° C. and subjected to repeated cycles of freeze-thawing was assessed. PAF-AH levels were measured at specified times following storage at 23° C. (2, 4, 8, 24 and 48 hours) and at 4° C. (5 and 10 days) and following 5 sequential cycles of freezing and thawing. To assess the stability of PAF-AH to long term storage, serum samples stored at −70° C. since 1998 were re-assayed for PAF-AH and compared to results of assay results prior to storage.

B1: PAF-AH: the enzyme that degrades PAF; endogenous serum enzyme measured as biomarker (protein, UniProt Q13093 22-441, looked up)
Platelet-activating factor …: FDWQYINPVAHMKSSAWVNKIQVLMAAASFGQTKIPRGNGPYSVGCTDLMFDHTNKGTFLRLYYPSQDNDRLDTLWIPNKEYFWGLSKFLGTHWLMGNILRLLFGSMTTPANWNSPLRPGEKYPLVVFSHGLGAFRTLYSAIGIDLASHGFIVAAVEHRDRSASATYYFKDQSAAEIGDKSWLYLRTLKQEEETHIRNEQVRQRAKECSQALSLILDIDHGKPVKNALDLKFDMEQLKDSIDREKIAVIGHSFGGATVIQTLSEDQRFRCGIALDAWMFPLGDEVYSRIPQPLFFINSEYFQYPANIIKMKKCYSPDKERKMITIRGSVHQNFADFTFATGKIIGHMLKLKGDIDSNVAIDLSNKASLAFLQKHLGLHKDFDQWDCLIEGDDENLIPGTNINTTNQHIMLQNSSGIEKYN
6 fresh sera, 5 freeze-thaw cycles, relative to fresh sera
  residual PAF-AH activity: 90-105%
Fresh sera in 1998 (n=25), before storage
  mean PAF-AH activity: 27.04 ± 9.92 nmol/mL/min
Same sera after eight years at −70° C. (p=0.1047)
  mean PAF-AH activity: 22.98 ± 7.23 nmol/mL/min
Sera stored at 4° C. for 10 days
  retained initial PAF-AH activity: 96-102%
Sera stored at 23° C. for up to 48 hours
  retained PAF-AH activity of fresh sera: 84-92%
